Measurements taken from a protein production outcome set (Wang et al. 2014).

Experiment: label from the status in PepcDB records

With “MLDPARSYDLIGDVHGCALTLEHLLDRLGYHKQAGVWRHPSRMAVFLGDIIDRGPRIRESLHIVHDMVEAGQALCIMGNHEFNALGWSTPAAEGSGKQFVREHTPRHARLIHETLTQFEQHPGDWHDFLQWFYELPLFVDAGRFRVVHACWDAGLIAPLRQQYPNGCIDREFLQSAAVPDSFACTAFDRLLRGTDMRLPHGLTMTSGDGLTRAFFRTKFWEDDPQTYGDIVFQPDALPEPVARTPLSPAEKNSLLRYGAEEPMLFVGHYWRSGKPAPIRPNLACLDYSAVLYGKLAAYRLDQETRLDPNKFVWVDVERPEVVRLEHHHHHH” the protein production was “failed”.

For “MLDSHLHPRLKPLLNAVAGALDRPGISPDGLTLVGFAIGVLALPFLALGWYGAALAAILLNRLLDGLDGALARRRGLTDAGGFLDIALDFLFYALVPFGFILADPLNNALAGGWLLFAFIGTGSSFLAFAALAARHQIANPGYAHKSLYYLGGLTEGTETILLFVLGCLFPAHFAWLAWLFGALCWLTTATRICSGYQTLKRVTTTA”, the protein production was “failed”.

In the case of “MAGSVGEETEPEWIKRVKLEGAVPCLKPDDNCKNGWTTPSPDTFMVRGPKYFSDKVKIPAGDFLLKPLGFDWIKGPKKLSEILSYPSSRIRKVIDEEFQKDGTKPFVWAFNLQLPHKDNYSAVAYFVTTEPILEGSLMDRFLKGDDGFKKSRLKLIANIVKGPWIVRKAVGEQAICVIGRALSCKYVSGENFVEIDVDIGSSMVASAIVHLAFGYVTTLTVDLAFLIESQTEAELPEKLLGAVRFSELQTESATSIELSSSTSNDQWDQTTSERSSWWKSIGNGFSNLLNQDTANMNNTSHGDIQKDEHVQKQ”, the protein production is reported as “failed”.

For “MLTENYNKQAIAQAFGRAAGCYDRFAELQRTSGERLLALMPAHSGLQVLDAGCGTGHFSRYWRQAGRNVTALDLSAEMLAYAREQHAADRYLEGDIENLPLADSCVDICYSNLAVQWCDSLPRALGELYRITRPGGVIAFATLADGSLSELSQAWQRLDGTQRTNRFLPHSVIDAACQPYRHHLLQEREVCLFPDVLALMKSLKGIGATWLHEGRTPGLLSRARLAALSACYPQEQGGYPLSYQLVYGVIYRDLEHHHHHH”, the protein production was “failed”.

In the case of “MASKKPDKTYEEMVKEVERLKLENKTLKQKVKSSGAVSSDDSILTAAKRESIIVSSSRALGAVAMRKIEAKVRSRAAKAVTEQELTSLLQSLTLRVDVSMEELEHHHHHH”, the protein production is reported as “not failed”.

In the case of “MDLALAQVDSTVSGLYDALDLIGVLLNGIIGGTIARQRGYDIIGFLFLALFSALGGGMIRDMLIQQGTVAAIDNQIYLALAFSGALIAMAVNFKGRVWELFKVHGDAIVLGVWAVTGSVKAMNAGVAPLPSIFMGVLTAVGGGMVRDVATGQTPTIFGGGTLYAVPATLSATSMVIFHSFDQVILGMIISPFLGIALAVTAYWCGWVIPVNTDFAPVNLTVSQLRAMLSKAERKDKDQK”, the protein production is reported as “failed”.

For “MEFKDYYKIMGVPRDASQDDIKRAYRKLARKYHPDVSKDPQAEARFKELGEAYEVLKDPEKRVAYDRLGTNWKADQEFRPPPDWNAGFEFSQQGFTGADAAQFSEFFESLFGRSFRAEQARRGGETHGGPGGAFFHAPGEDRYAKIMIDLEDSYHGATRTISLQVPEVDAEGHVSTREHKLNVVIPRGIRPRQYIRLAGKGAPGHGQGKAGDLYLEIEFRSHPIYRVDEHDVYLDLPVAPWEAALGATITVPTPEGMVDLKIPADSTTGRKLRLKGRGIPGKIPGDFYVVLRIVPPPATDESDKAFYRSMAEQFKSFNPRAKLGVQA”, the protein production was “failed”.

For “MSERAGEKKLDLLITGVGGQGAILASDIIGKAAVISGIPIRAAETHGMAQRGGSVVNHIRLGSDLGSMIPKKGADIMLALEPMEAVRYLDFLKDGGVIIVNTQSIIPVTVTSGLSKYPEVQEILDALSEKYVVKAFNADELAHEAGSRLAMNVAMVGAVSGYLPISKEVLLESVKVLVPKKTIEINIRAFEMGREEVEES”, the protein production was “not failed”.

In the case of “MELNQPPLPTEIDGDAYHKPSFNDLGLKESVLKSVYEAGFTSPSPIQEKAIPAVLQGRDVIAQAQTGTGKTAAFALPIINNLKNNHTIEALVITPTRELAMQISDEIFKLGKHTRTKTVCVYGGQSVKKQCEFIKKNPQVMIATPGRLLDHLKNERIHKFVPKVVVLDESDEMLDMGFLDDIEEIFDYLPSEAQILLFSATMPEPIKRLADKILENPIKIHIAPSNITNTDITQRFYVINEHERAEAIMRLLDTQAPKKSIVFTRTKKEADELHQFLASKNYKSTALHGDMDQRDRRSSIMAFKKNDADVLVATDVASRGLDISGVSHVFNYHLPLNTESYIHRIGRTGRAGKKGMAITLVTPLEYKELLRMQKEIDSEIELFEIPTINENQIIKTLHDAKVSEGIISLYEQLTEIFEPSQLVLKLLSLQFETSKIGLNQQEIDAIQNPKEKTPKPSNKKTPQHERARSFKKGQHRDRHPKTNHYSKKPKRR”, the protein production is reported as “failed”.

In the case of “MQDKYGVNHDHYCYESSDVLINLLNIRDPDELTQAEADFNLIRYSEYCSDLDELEDFDSNHFLNLHWVLFQDIYEWAGTIRDVDISKANTRFCTCSRVEPELNKAISRIPLIRFCRNKHELVALVADIFSDLNVVHPFREGNGRTTRFFFEELLHVAGYRIEWPVITKEEWVDANIHGYFGQLHKLEVIFDAAIIESLEHHHHHH”, the protein production is reported as “failed”.

With “MAAFTGTTDKCKACDKTVYVMDLMTLEGMPYHKSCFRCSHCNGTLVICNYSSMDGVLYCKTHFEQLFKESGNFSKNFQTAGKTEKSNDAAPNRLSSFFSGTQDKCAACKKTVYPLEKMTMEGESYHKTCFRCAHSGCPLTHSSYAALDGVLYCKVHFSQLFLEKGNYNHVLQAAANHRRSTAEEDKTEPKEDEANPTEEETSDAAAEEHES” the protein production was “failed”.

With “MTADPTKNDPHGLGTASRPAAELAVGETETIPVIEETARIDKRVVEKGRVRVQTRTETTDDVLRETLRSDVVGVTRIPIDRVIAEGEVAPTIRTENGVTIIPVLEEVLVVEKRLILKEEVHIRQTTSGEAVEVPVTLRRQHAVVERVSADGHVSEIPPKEQTP” the protein production was “failed”.

In the case of “MLVSLLGILLSVIVGFVVTLISTKWVIGLCKKRGFTGKDINKLTKDDVPVLGGIGIVAGFVAGSFTFLLTSYNLSPGIENVVVSILLSSLIIGFLGLLDDIFNISQATRAFLPIFASIPLILYSVGHTIISIPFLGKVNFGILFYIIILPATLTITANAFNMLEGLNGLGAGMGLIMALALAYIGLKSGGTSFYAGIVSIILASVLFGFLIFNFYPAKTFPGNIGTYFIGSVIGSIGISGYMYTALFFLYLPYVIEFVLKAKTRFKGVSFGKIDDQGYLHWDSKPNSLTHIVMRIGKFKEYHIVLIIWGIEILFAILAVVFQTVTITI”, the protein production is reported as “failed”.

With “MSLNVKNDFSILIIEDDKEFADMLTQFLENLFPYAKIKIAYNPFDAGDLLHTVKPDVVMLDLMMVGMDGFSICHRIKSTPATANIIVIAMTGALTDDNVSRIVALGAETCFGKPLNFTLLEKTIKQLVEQKKATSEGHHHHHH” the protein production was “not failed”.

With “MGMDLRVVPAEEWLNRGIDSSHDGEHDLGLMVTDFLETGGGSGGAGSWCSSDSDSGFPDPSYLSDKIQYLKYSMAQHETEVLSVVRTLMLTIKEKDLHSVKSGTCNASCIRFYLAKLLRLSGYDAAVCSARWQGGGKVPGGDNEYIDIILSDTEVGQDDRLIVDIDFRSHFEIARAVDSYQRIMESLPVVYVGTVARLNQFLQVMVDAAKFSLKQNSMPLPPWRSLNYLRSKWHSPHKRHLGPIDQQGPGMFSPGLHGQCAENLKRLQFALQVEQEAERFMKKKSGFSRRN” the protein production was “failed”.

In the case of “MNQEIAYLHPVKTARALVLVYLCFSVPIVAMGLFVAFIRYGDLPGITVFTALILNALIGFGLLWLGCKAYNWVAARFGGIEVHVRELTPEDRQ”, the protein production is reported as “failed”.

In the case of “MASMTMTSSFLPTVSNLPANISSNSRRSLTVVKASGSENTTSLENKKQEQSMKMRRDLVFTAAAAAVCSLAKVAMADDEPKRGTEAAKKKYAPVCVTMPTAKICRN”, the protein production is reported as “failed”.

For “MSTSDPSAERPRDNFIYDIIDEDLEHGTYDGRVVTRFPPEPNGYLHIGHAKSIVLNFGIKHDYADRADTRCHLRFDDTNPDTESTEYVESIKEAVQWLGYDWEEHEYHASDYFEQFYQYAVTLIEQGDAYVDSLSEEEIREYRGTVDEPGTPSPYRDRSVEENLELFRKMRDGEFDDGEHVLRAKIDMSSPHMIMRDPLLFRIKHAHHYRRGDEWCIYPMYDYAHPLEDAIENITHSLCTLEFDNNRRVYDWVMEHCLDENELPSRPRQYEFNRLNLGYTVMSKTKLRHLIEEDLVGGWDDPRLPTISGLRRRGVPPSAIRSFCRTVGVTRSQSRVQIGHFEHALRDDLNAKAPRVMAVLDPLKVVATNVDADAVDWIDANHWPRDIDKDETRPVPFTREFYIERDDFREDPPEDFIRLAPGREVRLRHAYFFTCEEVVRDEDGVVTELRGTIDPETRDSTAPDGRSPEGTLHWVSAAHGLPFEARLYDRLFEVPDPDARDEHFTEFLNPDSLNVRQGVLEPAVRDLEADQRVQFERQGYFWPDPEASRPDALVYNQIVPLRDTWGEDEDGLTQEELARRRRAKEQRKQEQRRRSLDGKTDPAEHLDDAQRDRFDRFHDELGIDREDAATIAGNGALAGFFEQALAHYDAPVPVANWTVNELLGRLQDQTVADLPFGPDAFAELVRLVDTEFISTRGGDAVLDALLEDGGSPERIVDDRGLRQVDDTEALRPTVQSVLDDHPDEVSRYRDGKKGLIGFFMGQVMDATDGAASPELARELLQQELDPSA”, the protein production was “failed”.

For “MDKIIIQGARENNLKNIFLEIPKNQFVVFTGLSGSGKSTLAFDTLYAEGQRRYLESLSSYARQFLDKVGKPNVDKIEGLTPAIAIDQKTTSKNPRSTVGTITEIYDYLRLLFARVGEQFCPTCLEPISSMSTSDIISQICHLEENSKIIILAPIIKDKKGSFNDKLESLRLKGYVRAFVDGVMVRLDEEIHLHKTKKHTIEAVVDRVVVNNENASRIASAIEKALKESYGELEVEILQDNAPSIRKHYSEHKACFKCKMSFEELEPLSFSFNSPKGACESCLGLGTKFSLDISKILDPNTPLNQGAIKVIFGYNRSYYAQMFEGFCEYNGIDSALCFNELNKEQQDALLYGNGTEISFHFKNSPLKRPWKGIIQIAYDMFKEQKDLSDYMSEKTCSSCEGHRLKASSLSVQVAGLKMADFLTKPIEEVYHFFNDPTHFSYLNEQEKKIAEPILKEILERVFFLYDVGLGYLTLGRDARTISGGESQRIRIASQIGSGLTGVLYVLDEPSIGLHEKDTLKLINTLRNLQKKGNTLIVVEHDKETIKHADFVVDIGPKAGRHGGEVVFSGSVKELLQNNHSTALYLNGTKKIERPKFELPKEKHFLEIKNVNINNIKNLSVQIPLKQLVCITGVSGSGKSSLILQTLLPTAQTLLNHAKKTQSLNGVEIVGLEHLDKVIYLDQAPIGKTPRSNPATYTGVMDEIRILFAEQKEAKILGYSASRFSFNVKGGRCEKCQGDGDIKIEMHFLPDVLVQCDSCKGAKYNPQTLEIKVKGKSIADVLNMSVEEAYEFFAKFPKIAVKLKTLMDVGLGYITLGQNATTLSGGEAQRIKLAKELSKKDTGKTLYILDEPTTGLHFEDVNHLLQVLHSLVALGNSMLVIEHNLDIIKNADYIIDMGPDGGDKGGKVIASGTPLEVAQNCEKTQSYTGKFLALELK”, the protein production was “failed”.

For “MRRRWYNNGGFQTLRMLEESSSEVTSSSALGLPPAMVMSPESLASPEYGGLELWGYDDGITYSMAQSLGTCTMEQQQPQPQQQPQQTQPLPSMPLPMPPTTPKSENESMSSGREELSPASSVNGCSTDGEARRQKKGPAPRQQEELCLVCGDRASGYHYNALTCEGCKGFFRRSVTKNAVYICKFGHACEMDMYMRRKCQECRLKKCLAVGMRPECVVPENQCAMKRKEKKAQREKDKLPVSTTTVDDHMPPIMQCDPPPPEAARIHEVVPRFLNEKLMEQNRLKNVPPLTANQKSLIARLVWYQEGYEQPSEEDLKRVTQTWQSDEDDEDSDMPFRQITEMTILTVQLIVEFAKGLPGFAKISQSDQITLLKACSSEVMMLRVARRYDAATDSVLFANNQAYTRDNYRKAGMAYVIEDLLHFCRCMYSMMMDNVHYALLTAIVIFSDRPGLEQPLLVEEIQRYYLNTLRVYILNQNSASPRCAVIFGKILGILTEIRTLGMQNSNMCISLKLKNRKLPPFLEEIWDVADVATTATPVAAEAPAPLAPAPPARPPATV”, the protein production was “not failed”.
